Data: the DeepSol protein solubility set

Experiment: soluble on expression in E. coli; label from the status in PepcDB or PDB records
For “MSLTECFLSDQEIRKLNRDLRILIAANGTLTRVLNIVADDEVIVQIVKQRIHDVSPKLSEFEQLGQVGVGRVLQRYIILKGRNSEHLFVAAESLIAIDRLPAAIITRLTQTNDPLGEVMAASHIETFKEEAKVWVGDLPGWLALHGYQNSRKRAVARRYRVISGGQPIMVVTEHFLRSVFRDAPHEEPDRWQFSNAITLAREGHHHHHH”, the “soluble on expression in E. coli” value was “soluble”. In the case of “MSLTELLNNQDYRKEALKEIIRELHRGKSVEEVKARFNELIKDVAPAEISLMEQALINEGLPVEEVQRLCDVHAAVFKESLERAPQPETIPGHPVHTFKEENRALEDLMIREIQPLLAELRRANPDVEKDLAIKLAEKLNLLQDVNKHYSRKENLLFPYLEKYQIVGPPKVMWGVDDEIRDLLKEARDLAVNYVPDKKEELITRTEAALAKIKEMIFKEERILFPMALETLTEDEWYRIMLDSASIGYCLIEPREDWRPAQVKLDQKETVASEETRGYIKFATGILTPREISLIFDHLPVDITFVDKDNVVKYFSNTRERIFTRSRAVIGRRVENCHPPASVQVVEKLIADFKSGRKDREAFWLHLGDKYVFIQYFAVRDEKGDFAGTLEVTMDLKPLQAISGEKRIMDEGHHHHHH”, the “soluble on expression in E. coli” value was “soluble”. In the case of “MSLTESARATVSLGFTAELFPPGTHMCYIYNDERERLEIMSEFVRSGIESGEKIAYFVEEMSPQALRDYLAGLGIVPTEEAQLEIAPSVDVYCPEGRFSPDRMLGRLRSAYEDGIREGFNGVRLTGEMHWALRGLPGSERLAEYESRINLLVVDCPLTVICQYDANHFDGATLFKILNAHPMMIVRGQVVHNPYYLSPEEYFARYPVPNVEGHHHHHH”, the “soluble on expression in E. coli” value was “soluble”. For “MSLTIAHLTSSAFAVNKERNKFLMIHHNIYNSWAWTGGHSDNEKDQLKVAIKELKEETGVKNPTPLLDKAFALDVLTVNGHIKRGKYVSSHLHLNLTYLIECSEDETLMLKEDENSGVMWIPFNEISKYCSEPHMIPIYEKLINKLKTQSKEGHHHHHH”, the “soluble on expression in E. coli” value was “not soluble”. For “MSLTIDHSVTNTEQLEQQNPAIKTKLKLKKLKDQVIVITGASSGIGLVTARMAAEKGAKVVAAARNEEALKELTDELKEKGHDAIWVKADVGKEEDVNRIAETAISTFGRFDTWVNNAAVSTFGHAMDVTVEDMKRMFDTNFWGPVYGTRAAVKHYTGRGVPGALINVGSLFGDRGTVIQSTYASAKFALHGWTESIRMELEKEQAPVSVTLIHPGRIDTPYNEHAHSYLDKQPAHYRSMIYPPEAVAEAILFAAEHPKRDMYIGSQAKAIAMLGALFPRLTDRLMEKIMYHSQHAERPSNPREGHHHHHH”, the “soluble on expression in E. coli” value was “soluble”. In the case of “MSLTIGFIFDLDGVITDTAKFHYQAWKALADSLGIPIDETFNETLKGISRMDSLDRILVHGHRENAFTPAEKEALAQQKNDHYVQLLEQLTTEDVLPGVVPLLQQAQARHIPCAVASASKNAPLILEKLGVRAYFATIVDPDSLSKGKPDPEIFLAAADSIGVLPQNAIGFEDAQSGIDGLKAAGIYAVGLSASQPLIGADMQVSEMTELSVDALLNREGHHHHHH”, the “soluble on expression in E. coli” value was “soluble”. With “MSLTISLGYRALDVGRARAHALIDQLSARESVELLCEAFEVPRSCYYNHRLRRRNPDVERVRLRSRVNELFTQSRSAAGSRSIVLMMHEDGEQIGRFKVRSLMRELGLISKQPGSHAYRKATVERPDIPNILNRAFDVPAPNQVWCGDITYIWAQGKWHYLAVVMDLFARRVVGWALSSKPDTDLVIKALDMAYEQRGKPQGLLFHSDQGAQYGSRQFRQRLWRYRIRQSMSRRGNCWDNAPMERVFRSLKTEWIPTVGYMTAQEAQRDISHYLMHRYNWIRPHQFNNGLAPAQSEKRLNVVSGISEGHHHHHH” the “soluble on expression in E. coli” value was “not soluble”. In the case of “MSLTITDWASTVNLNYDMSNKPVIAHVWKEQNANWLYGGWVCRSDRDENEGACDETKLPPGMLYGVTKIRLRFREQISHAETTLILDGQSGGFCLSTKISGGSVCKYLMQTCLSTFLQKSLRRYQKLAYGRLRWPWMEGHHHHHH”, the “soluble on expression in E. coli” value was “not soluble”. In the case of “MSLTITVLQGGNVLDLERGVLLEHHHVVIDGERIVEVTDRPVDLPNAQAIDVRGKTVMPGFIDCHVHVLASNANLGVNATQPNILAAIRSLPILDAMLSRGFTSVRDAGGADWSLMQAVETGLVSGPRIFPSGKALSQTGGHGDFRPRGDLLEPCSCCFRTGAIARVVDGVEGVRLAVREEIQKGATQIKIMASGGVASPTDPIANTQYSEDEIRAIVDEAEAANTYVMAHAYTGRAIARAVRCGVRTIEHGNLVDEAAAKLMHEHGAFVVPTLVTYDALAKHGAEFGMPPESVAKVASVQQKGRESLEIYANAGVKMGFGSDLLGEMHAFQSGEFRIRAEVLGNLEALRSATTVAAEIVNMQGQLGVIAVGAIADLVVLDGNPLEDIGVVADEGARVEYVLQRGTLVKRQAAGREGHHHHHH”, the “soluble on expression in E. coli” value was “soluble”. For “MSLTIYHPAELPQRQAEKSPNKTIIKYYDRESKQWRNISWSKFAAGVMNAAKALAEIGLESGERIGIYSPNMVHCLYTELGAFAMRGVVVPLYATSSPEQLRFIVEDSSMETLFVGEQFQYNNAYRVQKEYGTLKRIVVFDERVVLNPEDKTSKYFSEFVRLGDSMPNETKVKVSSREAIPSDPALIIYTSGTSGRSKGVLLLHSNLMYQMKVHSEHIPVYGPGELSIAFLPMSHIFEKAWTLFCLTTGTRIAILRDPKKVLEALPQIRPSLMCNVPRFWEKVYQGVNEKMASSPRILKGVYRRAMAVGQRYRLDYWNEGKRAPLLLSMQYAFYNCTIFTLLKRVLGLQRGRYFPTAGAPLSDEINIFLQSVNIPIIVGYGLSETTATVSFYPQRGFKIGSMGKVMPGLDARIDPDNNEILVKGESVMSEYYNLPEETAGAFTPDGYFRTGDAGRMDPDGTLYFLERIKDLYKTANGKYIAPQMIEGMLTKDPIIEQIAVIGDRFKYVSALVYPNWELVRQAAIKRGLEQARTMSVDEMAANPEINRLMMARIEAAQDSLAAYEKVKYITLLAEPFTLEKGELTETMKLKRRVINEHYAEAIEKMYEGHHHHHH”, the “soluble on expression in E. coli” value was “soluble”. For “MSLTPAPDLTLGTAVDWRFAATVGRRLARPGPPSTDYTRRQVIDELAGAATKAEPLVRQVTGLLTDGADDGRVPAARIVDRPEWIAAAAESMRVMMNGTERPRGFLTGRVTGAQTGAVLAYVSSGILGQYDPFATDRGAGAGCLLLVYPNVIAVERQLRIEPSDFRLWVCLHEVTHRVQFTANPWLPGYMSQALALLTRDTGDDLGQVLSRLADYARNRGNTASQADANSTGILGLVRAVQSEPQRQALDQLLVLGTLLEGHADHVMDAVGPMAVPSVATIRRRFDERRHRKQPPLQRLLRALLGLDAKLSQYTRGKAFVDQVVGRVGMARFNAVWTGPETLPLPVEIEEPQRWIDRVLEGHHHHHH”, the “soluble on expression in E. coli” value was “soluble”. With “MSLTQLQITAFGDPSVLRLNPSLDKVPADGEVRVRICFAGVNPIDAKTRAGLGWAAAQNKDKLPWTPGYDVAGVVEKIGPGVTALAEGDRVCGMVGFPLAAGGYGESVVAREEELVRLEDIGLRQGAALPLAGLTAWQGLFEHGALKAGQRVLILAGAGGVGHLAVQFASAYGAEVVATASRDNHSFLHGLGASRMVDYHDADWVAQVGQVELVLDLVGGESGKAALACVKPGGRLVTVPTISAQQIKDAAAGSAIEVLGMLVHPDRQQLSQMLTLLRQGEVQVTVAGEYALAEGALAHQAIEQGHVRGKLLLRMPAAEGHHHHHH” the “soluble on expression in E. coli” value was “soluble”. For “MSLTRFQDRQEGERVVDFYMIRDREVKRASNGTDYLNLTLERKLEYIPARLWDATEQHKQALIRRAVVKVDGVVTVYRQQKQLNIQRIRLATDEDPVTVAELISKPGLSREELWHELRMIIEEIQDETLLKLVKTMLGKKEIRERFTTIPASKATHHPYYAGLLEHVVEVCQSILQLSLIYGTINRDVVIAAAILHDIGKVAALHDPFAPEYTDEGEMIGHVVLGVELINQTAQELGISMDEPILLAVKHCILSQREQDEGATSFVYGPKTKEAILLAALDQLNGRLNSFELMASHAEERWTYSPLFKRKMFTPDNDEGHHHHHH”, the “soluble on expression in E. coli” value was “soluble”. With “MSLTRQSLQQAAESRRSIYSLNKNLPVGKDEVVQIVEHAVLHTPSSFNSQSARVVVLFGEEHDKVWQFVEDALRAVVPADSFEPTAQKLNLFKAGAATILFYEDQNVVKGLQEQFPAYAANFPVWADQANAMVQYAVWTTLAAVGVGANLQHYNPLPDAAIAKAWNIPENWLLRAQMVIGGIEGAAGEKTFEPVAERLKVFGAEGGSHHHHHH” the “soluble on expression in E. coli” value was “soluble”. For “MSLTRRDFAGRSALTGAGVVLAGSVGALATAPNALASTDTDSVGAEHDGHDHHHGHGHGGVGYGPLLPDPDGILALPAGFRYEIITYSGRTKLESGEYTPSNHDGTAAFDGPRGTTLLVNNHELGGHRDDWPHPVPLTEGLVYDPAAAGGCTVVEVRRGGHVAEWVGIAGTATNCAGGSTPWGTWLTCEETEDRAGEEGMTKDHGYVFEVDPEDRRANREPKPVKALGRYAHEAVVIDPKRGHAYLTEDASGPNGLLYRWTPPEHFRHGRGRLRTLADDAGVLQAFKCFDSGGKFVDDLSRATRTGTVYGVDWVDVPDRDAQTTSVRKQFAAGEVTRARKLEGMWWADGGAYVVSSFARDESPGRPHDGQVWFYDPKRRTLTLKVLLGVNADPSADGAFDGPDNITVSPYGGLVIAEDGDGVQHLFGATDSGRTYPIARNELNLGTEDDPEYSEFTGVTFSPDGRTLYANIQTPGIMLAITGPWKRQKRR”, the “soluble on expression in E. coli” value was “soluble”. In the case of “MSLTSFSRLNTNLLQLKSKHSSDNAQHLYVNGNVGSSTEEITSVEYSKLLQLKLIDESLSFQWCNNYTVLSIYSMKETFARKTIYIHFPKPLLNKWFTAVVYESSETTSNLCFDVILKDGIFINLSLPIDFILSRTRQNEYPENWLKVLNPYDFSVRPPQCLFHVDNTFSVVFLKDGGLLGLKRIPLEILNDFELQPVLFNDSSYFQSFTRMFSKYDNHNSAVVSAELLNDKYLVTLTNDATIKIWDLTTYQLNAHFDLKEKNQQVNYGAAGKYMIICGSLLFVYLPAGNGSFQVIQLENTHSSRISFKPLNVNIPLNLSSYSIWSLIDIQLVKSSIVKQSGLNLVLLWKSNTVTKLQLLSFEDSLYSSYKWIDGNSTYLSDLLDDSDLITNGNMEKALLNLKSHYSQSTYDDAQKILNKNNVMVQINDPHNQDYLNNLEALLKELHKQYQEPSTLTILDDEIIVVNSLHMYHHSTYKLDSQLETIFFNIFERKEPSSQLELFLNILHGFSTTITSETLNKISEKFLDMVNGSINPSLSLKNKITIVFQDCLTNGFQSANLSKLLENLNSIDVVEVLSEFIHCDLKVGAFSVIDLLDTDIFLSVLSMESLKQTLSIMDKFIIDILLVFTIVDINYEVFAEKLSKLITLHFNISLWLQVYQIDKLLAISETFGHVTKYNYGAQLKSYSDITDFTTLMVGFVKNSEGHHHHHH”, the “soluble on expression in E. coli” value was “not soluble”. For “MSLTSPKRNIVGFTIVNDKHEFAQRLINAFKAEAKANKYEALVATSQNSRISEREQILEFVHLKVDAIFITTLDDVYIGSAIEEAKKAGIPVFAIDRMIRSDAVVSSITSNNQMIGEQLASYIKNELIKQTGRSTGRIVEITGTANVYTTNERHRGFLKGIENEPTLSIVDSVSGNYDPVTSERVMRQVIDSGIPFDAVYCHNDDIAMGVLEALKKAKISGKIVVGIDGNRAILEAVDMKSMDATVVQSAEEMMKVAFSALKLHTKNKKIPDRFYTYSYLYDGSREGHHHHHH”, the “soluble on expression in E. coli” value was “soluble”. In the case of “MSLTVIRKQDVISSVADALQYISYYHPLDFVKALEKAYQREESQAAKDSIAQILINSRMSAEGHRPICQDTGIVTCFVNIGMGVQWDSTDMTVQQMVDEGVRQAYTNPDNPLRASVLMDPAGKRINTKDNTPAVVHINMVPGDKVDIQIAAKGGGSENKTKMVMLNPSDDIAEWVEKTVPLMGAGWCPPGMLGIGIGGTAEKAAVLAKEALMEHIDIHELIERGPQNAEEELRLDIFNRVNKLGIGAQGLGGLTTVVDVKIKSAPTHAASKPVCMIPNCAATRHVHFTLDGSGPAQLTPPKLEDWPQITWEAGANTRRVNLDNITREEIQTWKTGETVLLSGKILTGRDAAHKRIQTMLQKGEKLPDSVDLKDKFIYYVGPVDAVGDEVVGPAGPTTSTRMDKFTDMMLEEVGVMGMIGKAERGPATVESIKKHKAVYLMAVGGAAYLVAKAIKKARVVAFEDLGMEAIYEFEVEDMPVTVAVDSTGANAHQIGPDTWRVKIAEAAKEGGSHHHHHH”, the “soluble on expression in E. coli” value was “soluble”.
